Measured values published in patent US20200207869A1 (INSERM INSTITUT NATIONAL DE LA SANTE ET DE LA RECHERCHE …, published 2020).

What was measured:
mD1-D2-HPC4 fragment = target: T1, mD1-D2-HPC4 fragment (murine, UniProt Q8CIZ8 23-762); assay: ELISA, sdAb immobilized
T1 construct: range 23-762
Description: (§1) Wells were then washed three times with 75 μl/well using TBS-T. Residual peroxidase activity was detected by measuring peroxidase-mediated hydrolysis of 3,3′,5,5′-tetramethylbenzidine.
(§2) Negative binding (−) was defined as optical density (OD) being ≤0.5, moderate positive binding (+) was defined as OD being >0.5 and <1.0, strongly positive binding (++) was defined as OD being ≥1.0.

[1] = target: T2, purified recombinant murine VWF (murine, UniProt Q8CIZ8 764-2813); assay: ELISA, sdAb immobilized
T2 construct: also called rmVWF
Description: as §1, §2

B1: sdAb KB-VWF-013 (VHH)
VHH: QVQLVQSGGGLVQAGDSLRLSCAASGRTFIRYAMAWFRQAPGKEREFVAAIPQSGGRSYYADSVKGRFTISRDNAKNTVYLQMNSLKPEDTAVYSCAATSTYYGRSAYSSHSGGYDYWGQGTQVTVSS
notes: Single-domain antibody against the VWF D'D3 domain; no tag stated
OD (mD1-D2-HPC4 fragment): ≤ 0.5 od

B2: sdAb KB-VWF-011 (VHH)
VHH: QVQLVQSGGGLVQAGDSLRLSCAASGGTFSNYAMGWFRQTPGKEREFVARISRSGHRTDYADSAKGRFTISRDNAKNTVYLQMNSLKPEDTAVYYCAARSDWSIATTATSYDYWGQGTQVTVSS
notes: as for B1
OD (mD1-D2-HPC4 fragment): ≤ 0.5 od
OD [1]: ≤ 0.5 od
